Experimental data from the DeepSol protein solubility set.

Assay: soluble on expression in E. coli; label from the status in PepcDB or PDB records

Row | Sequence | soluble on expression in E. coli
1 | MESNDSGGVAAKHGFLFQDCVAAYHVTRMLRDKTIRSVRCEVTDDIDIVSDGYIDFVQVKSTGKTRWNISDIVQNSKGADKKTIPCSSILHKSMQCESDLSLGRRYSIVTEEKVNKTLEYLTISPNARLDKPGRQELIDDLNKRTDNFLTDSGISVSDWIDAATWEVFSSLRELELLGIKNIRLASQDLHGVILSSETVAEDIWCRILDTVTRKGEHSRRIHSADDKSYLRPDLLEWFKQRVEDDQSRSGRKIYVKRDLPHILTPFRAPMASVCAKRKGQVLHQQYSLKKYRYKHIADNVCQWLDEVFLRPKEMSDIHKLTFIEKRERLKNSVFKSLHDVSEFLGRVLLHATIRQHHESQPIPCMLYVEKAGAEKILENVHIVRRDPEGDQLWIGFSELVTDINIAVRLPEIRDQLYEDISDCIDTARKKILDIKDDNYLLRHDIDEILDGSQPFDAHLDRFTFVLFVGYDSNLLTEPETPGFEDDLEKETAVLFEKFAADLIEDSPFANLCIHVFIYPAPSLERLTQLVDEKVREVV | soluble
2 | MESPNMRKRLIEMESSLEVKKTATTVKQEPLETSSPLLASMISTAPNPPPTSPHALNYLTLLAAFRQFLHGYIQAGGDENLANTLGNYVAALPMPPNSLNPIGPLNAPKSPFKQQQKFHSIIKAVKREPVSEPAQNAGSGDSSVTLSSALGEDAVPQNRGSCTSMKPVPRFVMLPVVAAQSASPSASGPTSEIQQLREAAFGRYKNVLCVICNEWICSRNRKNHIEAHLNYRPYKCSACSYARRREIFVDQHIRTQHKGVEGVVMLSDVDLHVAMEVDRLAEECVTRTRKIIDTMQEKKDGDFGENKDFDEKALQMMLAEEAENKVVVIESVSQVRPKVANYHRRQRTKVLKKIYDTDVAKQTELKIVKDEEGGVPTMSIKLEEGFEINLEDLMKMVGAGSSITDSNEPGPSEIKKELAEV | not soluble
3 | MESQLPKFLKEPEKYSRLRLLEALQELYLSIEMLKEGYSRNSASKLFLSWKALLSSIVVTNFGKIMETKKKEGKEDEIKWYMRIGYSAPTTGLIGIARDLENLGFKGLVNLTTAMLGIHRYAYNGLDEDISPFHSRSEAIISIKGLIKAEVEIVGSMKFGDEEKELFEKIKRELNNILEHHHHHH | not soluble
4 | MESRYVLTGRYDSAPATDGSGTALGWTVAWKNNYRNAHSATTWSGQYVGGAEARINTQWLLTSGTTEANAWKSTLVGHDTFTKVKPSAASGGGSAEAGITGTWYNQLGSTFIVTAGADGALTGTYESA | soluble
5 | MESTLQIMPVQRTSRNFGEYAEEAVIIEEPIIKQKRPLFIEANTIEASLEHLRNDCIIPVFAKDNEATLSHVAFIEAVQDATNTFFSGEQIESPDIRVSHVIKGRIPEAIHKPANQLLESDKTIYYERCAFVIEVPTIYETVHGNRLTLTIGGVRAYNHTNLYSKKGAERFKVFIGFTCKVCTNLCVSTDGYLSCLEVTNTRDLYQAVLEMFHKYDAAKHIHLMQSLGNTSMTEHQFCQLLGRMRLYQSLPQGYQKDIPKMLLTDTQVNNVARAYINDENFGSLGNDLSMWKLYNLLTGANKSSYIDSFLDRAYNATELATGICSALHGDNKYQWFLS | not soluble
6 | MESVYLFSSGTLKRKANTICLETESGRKYIPVENVMDIKVFGEVDLNKRFLEFLSQKRIPIHFFNREGYYVGTFYPREYLNSGFLILKQAEHYINQEKRMLIAREIVSRSFQNMVDFLKKRKVRADSLTRYKKKAEEASNVSELMGIEGNAREEYYSMIDSLVSDERFRIEKRTRRPPKNFANTLISFGNSLLYTTVLSLIYQTHLDPRIGYLHETNFRRFSLNLDIAELFKPAVVDRLFLNLVNTRQINEKHFDEISEGLMLNDEGKSLFVKNYEQALRETVFHKKLNRYVSMRSLIKMELHKLEKHLIGEQVFGSEE | soluble
7 | METDNVLKRILEIEHGFVHILDAAKEILSSSSEERSFAIASEFFDHEAYQPRMLATAILGHLAGTNSEALLFLKDRVSLDMNWRVQEMLAKAFDTFCKEQGYEKSLPVIREWLDSDNANVVRAVTEGLRIWTSRPFFKENPCLAIEWLSRHRGHESEYVRKSVGNALKDISKKHKESVAEELKKWDLSDPLVLFTYKHASKHPDKDIKKQ | not soluble
8 | METFRTLLAKAALGNGISSTAYDTAWVAKLGQLDDELSDLALNWLCERQLPDGSWGAEFPFCYEDRLLSTLAAMISLTSNKHRRRRAAQVEKGLLALKNLTSGAFEGPQLDIKDATVGFELIAPTLMAEAARLGLAICHEESILGELVGVREQKLRKLGGSKINKHITAAFSVELAGQDGVGMLDVDNLQETNGSVKYSPSASAYFALHVKPGDKRALAYISSIIQAGDGGAPAFYQAEIFEIVWSLWNLSRTDIDLSDPEIVRTYLPYLDHVEQHWVRGRGVGWTGNSTLEDCDTTSVAYDVLSKFGRSPDIGAVLQFEDADWFRTYFHEVGPSISTNVHVLGALKQAGYDKCHPRVRKVLEFIRSSKEPGRFCWRDKWHRSAYYTTAHLICAASNYDDALCSDAIGWILNTQRPDGSWGFFDGQATAEETAYCIQALAHWQRHSGTSLSAQISRAGGWLSQHCEPPYAPLWIAKTLYCSATVVKAAILSALRLVDESNQ | not soluble
9 | METKFYNHQGGHLILYFAGWGTPPDAVNHLILPENHDLLICYDYQDLNLDFDFSAYRHIRLVAWSMGVWAAERALQGIRLKSATAVNGTGLPCDDNFGIPCTVFKGTLENLTENTRLKFERRMCGDKASFEDYQQFPARPFGEIHQELIALFAMIGQDRRTDLIRWTNALVGSGDKIFMPANQHRYWTPRCTVREIDVGHYLFSRFTHWSALWNH | not soluble
10 | METKWRNGDIVQPVLNPEPNTVSYSQSSLIHLVGPSDCTLHGFVHGGVTMKLMDEVAGIVAARHCKTNIVTASVDAINFHDKIRKGCVITISGRMTFTSNKSMEIEVLVDADPVVDNSQKRYRAASAFFTYVSLNQEGKPMPVPQLVPETEDEKKRFEEGKGRYLQMKAKRQGHTEPQP | soluble
11 | METMCEVKVITGTSAAAEAAKLADVDVIAAYPITPQTTCVEKLAEFVANGELDAEYIKVESEHSAMSACIGAAATGARTFTATASQGLALMHEMLFIASGMRLPIVMMVANRALSAPINIWNDHQDSIAERDSGWIQIYVEDNQETLDSIIQAYKIAENEDVLLPVMVCLDGFILTHTVEPVTIPKAERVREFLGVYEPKHAYLDPDRPITQGPVGVPDCYMETRKQIEEAMERAKKVIRDVNEEFAEWFKRKY | not soluble
12 | METRRRSSRLQQQTTSDLNAREEPQPSEPPVKRARGAKKNEAPSTAPMPPKTTKKSTKPSRKQGSPIEAELDEMGFELENEEEAEIVVQKSKKNGRKLVKIDENLRISAENGSKSSNFLEENRMEIDEKPGNLAKKSSKNGSRVVKSDEKSENLVQSVPKSTTNGSKVAIIEDDPEIRAENGVKSSKSDEKPDFSAQNGSKLAQNAPNRISRPRRSVTTAKKVSYVPSDDQLELSSSSSELESSSEDEDTEIRPKTGSKIAKKREKSFKISESESSSESPDDESEASEASEDPSIPGPSEPRKRRKIQRKSTLSSGGATTKDLHWPKCSKASIARKTGNPGSKNAAKKPAKSSLRMAQKQKPDQPWKKNLKDYETDRKLAKGERRMLEYRHVAHAYVARGKIEEITYDEAYKLHEMMKKAYFAGRSLLDAAVLDPVEFEKSQKNVKKSEKNDEKNTAGDSSSSEDEWEEMEHFQPPIIDDNIEVSIDHEGGGGDDGEEVVKDWWAIYLRQEINRKIREMWENTHKLLFCLLRGLELTTRLVVNVRAIPRRWDKTQQKELQNELSKFRELSRSRSTTPGEKSLEIQEKSGEKSQKPAKKGQKSEKKAAKKVVVEERNYWVEYWQPREKRWICVDPLHKSVDEPLSIHEHSASPISYVFAIDNKQGICEVSQRYAMDCVKQDFRRRRTNPKWVAWTLFLPPFAANSERKKWEMMQMREDLVKRPLPTVMSEYKNHPLYALEKDLLKFEAIYPPPATQKPLGQIRGHNVYPRSTVFTLQGENNWLKLARSVKIGEKPYKIVKARPDPRIPVEDREDKFLDVYGYWQTEKYRRPPLKNGKIPHNEYGNVYMFNENMCPLDCTYLKLSGLVQISRKLGKQCIPAVVGWAFDGGFTHPVIDGAIVLEKDAIDFINAWEKLESGRAEKEEKQRVEKIHENWKKLIKGMLRLAYVRKQFGHPAAEKPTKRQKIGGKTEEIEENEGGAGPPSSVDHITDNTEQITPMHGFSLDDFINKKK | soluble
13 | METTFALLNFKESLCYIYPPTEPVRYVSSIVALNVHSPNGTGDWHSAKALSDRAYPEKFYIYGENQERNTNHLFGDNGIIDGTDRLNKMGYFPENIPVWLADHPRACVDYLYTAVLQTGSIGRVILDDWFPSDEDKQSVYDLLNQIEPHLNTQEWENLQLWKRKNPIM | not soluble
